Experimental data taken from patent publication US8138140B2, “Self-assembling peptide amphiphiles and related methods for growth factor delivery” (Northwestern University, priority 2003, dated 2012).
Ends that are not written are not given here. Peptide text beside a SMILES is read from it. * marks the point of attachment. Palmitoyl = CCCCCCCCCCCCCCCC(=O)*; NH(CH2)11CH3 = CCCCCCCCCCCCN*

Assays:
rh-BMP-2 = molecular target: T1, rh-BMP-2 (Homo sapiens, UniProt P12643); assay: ELISA screening of phage display clones, relative binding strengths; set-up: key to relative binding strength of selected clone (numeric coding): highest (1); 2: in decreasing binding strength from highest (1) to lowest (4); 3: in decreasing binding strength from highest (1) to lowest (4); lowest (4); settings: for relative binding strength of selected clone (numeric coding): BMP-2 coated plates, ELISA
T1 construct: purchased Peprotech
T1 sequence (P12643 283-396): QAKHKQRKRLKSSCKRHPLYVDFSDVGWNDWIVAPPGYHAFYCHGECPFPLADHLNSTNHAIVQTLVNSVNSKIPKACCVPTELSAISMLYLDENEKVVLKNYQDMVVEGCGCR
Source text: (§1) Phage display is typically used to find receptor-blocking peptides, i.e. sequences with high binding constants. To transfer a growth factor from the PA binding site to the cell receptor, an extremely high binding constant is not required and might even be unfavorable. Therefore, the 7-mer commercial phage library was elected over the […], aiming at intermediate binding strengths. Growth factors were physisorbed onto 96-well plates and subsequently exposed to the phage library. After incubation at room temperature for 60 minutes, the unbound phage was removed by rinsing with detergent solution. Bound phage was subsequently eluted by incubating with a growth factor solution for 60 minutes. The recovered phages were amplified for 4 h in E Coli at 37° C. and the panning was repeated two more times. In subsequent panning rounds, the stringency was increased by raising the detergent concentration and reducing the exposure time to the library. The final phage population was plated and the DNA of 10 clones of colonies containing only one phage type were sequenced. Next, ELISA screening was used to test for false positives and determine relative binding strengths of the selected clones. […] (See Table 1, below.)
(§2) Phage display was performed with the Ph.D. 7 kit (New England […]). Fifty microliters of diluted M13-phage library (containing 2×10^9 phages and all possible 7-mer sequences) were added to 96-well microtiter plates, which had been exposed to 50 μl 10 μg/ml growth factor (peprotech) solution for 18 h at 0° C. The plates were blocked for 1 h then incubated at room temperature for 60 minutes with gentle agitation. Unbound phage was removed by rinsing with TBS/Tween-20 (0.1% v/v Tween-20). Bound phage was subsequently eluted by incubating with 50 μl growth factor solution for 60 minutes. The presence of binding phage was determined by serial dilution of the phages and subsequent plating with E. Coli on agar plates. The number of plaques formed can be related to the number of phages in the original mixture. The phages were subsequently amplified for 4 h in E. Coli at 37° C. In subsequent panning rounds, the concentration of Tween-20 was raised to 0.5% and the binding and elution times were decreased and increased, respectively, to increase the stringency of the selection process. After three rounds of panning, the recovered phage mixture is diluted and plated with bacteria on agar. Subsequently, plaques are isolated containing a single DNA sequence. After purification, ten clones were sequenced. Next, ELISA screening was used to eliminate false positives and determine relative binding strengths of the selected clones. Each clone was incubated for 1 h on growth factor coated microtiter plates, the plates were rinsed with TBS/Tween-20 and subsequently HRP-conjugated anti-M13 antibody (Amersham Biosciences) was incubated for 1 h. After addition of ABTS, the absorbance at 450 nm was measured after 30 minutes to determine the relative binding strengths of the isolated clones. The strongest binder was subsequently selected.

[1] = test system: vascular endothelial growth factor (VEGF); assay: Phage display binding sequences (12-mer kit); set-up: key: * denotes the strongest binders; settings: 12-mer phage display kit
Procedure: (§3) Numerous binding sequences were determined for vascular endothelial growth factor (VEGF), both with 7- and 12-mer phage display kit, basic fibroblast growth factor (FGF-2), neurotrophin-3 (NT-3) and laminin-5; * denotes the strongest binders: […]

rh-TGF-β1 = molecular target: T2, rh-TGF-β1 (Homo sapiens, UniProt P01137); assay: ELISA screening of phage display clones, relative binding strengths; set-up: key to relative binding strength of selected clone (numeric coding): highest (1); 2: in decreasing binding strength from highest (1) to lowest (4); 3: in decreasing binding strength from highest (1) to lowest (4); lowest (4); settings: for relative binding strength of selected clone (numeric coding): TGF-β1 coated plates, ELISA
T2 construct: purchased Peprotech
T2 sequence (P01137 279-390 limits assumed): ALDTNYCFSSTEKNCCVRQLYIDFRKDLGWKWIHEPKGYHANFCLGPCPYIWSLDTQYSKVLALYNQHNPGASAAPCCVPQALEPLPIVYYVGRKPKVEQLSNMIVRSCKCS
Source text: as §1, §2

laminin-5 = assay: Phage display binding sequences; set-up: key: * denotes the strongest binders
Procedure: as §3

[2] = Acid-base (pKa) titrations of PA aggregates; settings: 3 mM, aggregated state
Procedure: Acid-Base titrations. pKa titrations were preformed on PAs 1-4 in the range of pH 2-10 with a Fisher Accumet pH meter at a concentration of 3.5 mg/mL in 100 mM KCl. For the acidic PAs 2 and 4, 0.1N KOH was added in 1-5 μL increments, starting at low pH, whereas for the basic PAs 1 and 3, 0.1N HCl was added in 1-5 μL increments, starting at a high pH.
pKa titrations of aggregates of molecules 1-4 were carried out at a concentration of 3 mM. All titrations were started at a pH where the molecules were already in their aggregated state in order to avoid kinetic effects due to self-assembly.

mesenchymal stem cells = assay: Mesenchymal stem cells cultured in PA gels with TGF-β1, lineage markers; format: cell-based, Human; settings: TGF-β1 up to 20 ng/ml, 10 days
[3] = phage display and ELISA screening

Row | Compound | relative binding strength of selected clone (numeric coding) (rh-BMP-2) | relative binding strength of selected clone (numeric coding) (rh-TGF-β1) | also measured
1 | KVPPANT | KVPPANT (3) | – | –
2 | KQALTQT | KQALTQT (3) | – | –
3 | PLTPSALLPIFE | – | – | strongest binders [1]: PLTPSALLPIFE*
4 | PAPRWIH | – | PAPRWIH (3) | –
5 | RYHPHLH | – | – | strongest binders (laminin-5): RYHPHLH*
6 | VYRHLPT | – | VYRHLPT (2) | –
7 | Asp(CONHC12)-Val-Val-Val-Ala-Ala-Ala-Glu-Glu-Glu-NH2 (D(NH(CH2)11CH3)VVVAAAEEE-NH2; N-terminus assumed; SMILES CCCCCCCCCCCCNC(=O)C[C@H](N)C(=O)N[C@H](C(=O)N[C@H](C(=O)N[C@H](C(=O)N[C@@H](C)C(=O)N[C@@H](C)C(=O)N[C@@H](C)C(=O)N[C@@H](CCC(=O)O)C(=O)N[C@@H](CCC(=O)O)C(=O)N[C@@H](CCC(=O)O)C(N)=O)C(C)C)C(C)C)C(C)C) [PA 4] | – | – | apparent pKa of aggregates (titration curve) [2]: complex curves with transitions occurring over wide ranges
8 | AWKSVTA | – | AWKSVTA (3) | –
9 | QQTQAQH | QQTQAQH (4) | – | –
10 | PIQPDER | PIQPDER (2) | – | –
11 | RVSTWDT | – | RVSTWDT (3) | –
12 | LPSPIQK | – | LPSPIQK (2) | –
13 | LRNYSHS | – | LRNYSHS (3) | –
14 | VSILSTIPNSMT | – | – | strongest binders [1]: VSILSTIPNSMT*
15 | YPVHPST | YPVHPST (1) | – | binding to BMP-2 (in words) (rh-BMP-2; [3]): best binding epitope
16 | PFDPPVR | PFDPPVR (2) | – | –
17 | PTPLKVRLHSYN | – | – | strongest binders [1]: PTPLKVRLHSYN*
18 | RTTSPTA | – | RTTSPTA (3) | –
19 | DVSPAYH | DVSPAYH (3) | – | –
20 | GKYPPTS | – | GKYPPTS (3) | –
21 | LHYPFMT | LHYPFMT (3) | – | –
22 | WPALFTH | WPALFTH (3) | – | –
23 | LPLGNSH | – | LPLGNSH (1) | binding to TGF-β1 (in words) (rh-TGF-β1; [3]): best binding epitope
24 | Asp(CONHC12)-Val-Val-Val-Ala-Ala-Ala-Lys-Lys-Lys-Ser-Gly-Gly-G-ly-Leu-Pro-Leu-Gly-Gln-Ser-His-NH2 [PA 10] | – | – | Collagen II expression (mesenchymal stem cells): higher for the binding gels; α-smooth muscle actin expression (mesenchymal stem cells): higher in the binding gels than in the nonbinding gels
25 | PGPTVQG | PGPTVQG (2) | – | –
26 | CCCCCCCCCCCCCCCC(=O)N[C@H](C(=O)N[C@H](C(=O)N[C@H](C(=O)N[C@@H](C)C(=O)N[C@@H](C)C(=O)N[C@@H](C)C(=O)N[C@@H](CCC(=O)O)C(=O)N[C@@H](CCC(=O)O)C(=O)N[C@@H](CCC(=O)O)C(=O)O)C(C)C)C(C)C)C(C)C [PA 2] (Palmitoyl-VVVAAAEEE-OH) | – | – | apparent pKa of aggregates (titration curve) [2]: complex curves with transitions occurring over wide ranges
